Values joined by “and” are separate entries in the source; they are usually repeats but may differ in a detail not shown here. Equal values may be shown once.
B1: full-length human TRPV3 channel (expressed in P. pastoris) (natural protein, UniProt Q8NET8 1-790, looked up)
chain: MKAHPKEMVPLMGKRVAAPSGNPAILPEKRPAEITPTKKSAHFFLEIEGFEPNPTVAKTSPPVFSKPMDSNIRQCISGNCDDMDSPQSPQDDVTETPSNPNSPSAQLAKEEQRRKKRRLKKRIFAAVSEGCVEELVELLVELQELCRRRHDEDVPDFLMHKLTASDTGKTCLMKALLNINPNTKEIVRILLAFAEENDILGRFINAEYTEEAYEGQTALNIAIERRQGDIAALLIAAGADVNAHAKGAFFNPKYQHEGFYFGETPLALAACTNQPEIVQLLMEHEQTDITSRDSRGNNILHALVTVAEDFKTQNDFVKRMYDMILLRSGNWELETTRNNDGLTPLQLAAKMGKAEILKYILSREIKEKRLRSLSRKFTDWAYGPVSSSLYDLTNVDTTTDNSVLEITVYNTNIDNRHEMLTLEPLHTLLHMKWKKFAKHMFFLSFCFYFFYNITLTLVSYYRPREEEAIPHPLALTHKMGWLQLLGRMFVLIWAMCISVKEGIAIFLLRPSDLQSILSDAWFHFVFFIQAVLVILSVFLYLFAYKEYLACLVLAMALGWANMLYYTRGFQSMGMYSVMIQKVILHDVLKFLFVYIVFLLGFGVALASLIEKCPKDNKDCSSYGSFSDAVLELFKLTIGLGDLNIQQNSKYPILFLFLLITYVILTFVLLLNMLIALMGETVENVSKESERIWRLQRARTILEFEKMLPEWLRSRFRMGELCKVAEDDFRLCLRINEVKWTEWKTHVSFLNEDPGPVRRTDFNKIQDSSRNNSKTTLNAFEEVEEFPETSV
B2: full-length human TRPV3 (expressed in HEK293S GnTI- cells) (natural protein, UniProt Q8NET8 1-790, looked up)
chain: B1 chain

Target: the molecule itself
Experiment: high-speed atomic force microscopy

Protein | stoichiometry N
B1 | 4 and 5
B2 | 3 and 2

Source: paper PMC10584365 (Nature, 2023)
